Results as given in US20220204643A1 (published 2022).
Blank lines part the entries; values can stand above or below the binder they belong to.

Tests used:
Assay in all cases: protein array
[1] = target: T1, Kirre like nephrin family adhesion molecule 1 (human, UniProt Q96J84 17-757)
T1 construct: on protein array
T1 sequence: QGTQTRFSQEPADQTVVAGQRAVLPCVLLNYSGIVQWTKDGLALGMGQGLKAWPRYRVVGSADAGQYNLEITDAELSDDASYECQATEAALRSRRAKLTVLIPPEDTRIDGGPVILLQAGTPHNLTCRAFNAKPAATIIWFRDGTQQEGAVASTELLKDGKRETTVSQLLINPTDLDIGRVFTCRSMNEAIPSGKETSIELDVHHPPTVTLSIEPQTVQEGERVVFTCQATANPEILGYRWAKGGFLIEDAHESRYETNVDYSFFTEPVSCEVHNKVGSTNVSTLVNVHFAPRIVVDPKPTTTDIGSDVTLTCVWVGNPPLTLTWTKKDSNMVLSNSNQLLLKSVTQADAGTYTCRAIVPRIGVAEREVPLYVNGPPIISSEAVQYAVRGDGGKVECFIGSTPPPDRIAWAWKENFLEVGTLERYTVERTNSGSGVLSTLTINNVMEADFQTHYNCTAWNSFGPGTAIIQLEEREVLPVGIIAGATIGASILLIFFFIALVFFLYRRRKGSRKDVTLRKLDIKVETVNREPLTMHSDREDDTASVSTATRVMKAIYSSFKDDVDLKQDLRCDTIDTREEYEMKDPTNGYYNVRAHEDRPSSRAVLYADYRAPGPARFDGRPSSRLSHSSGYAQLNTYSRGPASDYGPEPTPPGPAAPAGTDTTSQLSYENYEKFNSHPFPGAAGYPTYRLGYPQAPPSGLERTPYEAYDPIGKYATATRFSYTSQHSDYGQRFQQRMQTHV

[2] = target: T2, GRB10 interacting GYF protein 1, transcript variant X10 (human, UniProt O75420 1-1035)
T2 construct: on protein array; also called GIGYF1
T2 sequence: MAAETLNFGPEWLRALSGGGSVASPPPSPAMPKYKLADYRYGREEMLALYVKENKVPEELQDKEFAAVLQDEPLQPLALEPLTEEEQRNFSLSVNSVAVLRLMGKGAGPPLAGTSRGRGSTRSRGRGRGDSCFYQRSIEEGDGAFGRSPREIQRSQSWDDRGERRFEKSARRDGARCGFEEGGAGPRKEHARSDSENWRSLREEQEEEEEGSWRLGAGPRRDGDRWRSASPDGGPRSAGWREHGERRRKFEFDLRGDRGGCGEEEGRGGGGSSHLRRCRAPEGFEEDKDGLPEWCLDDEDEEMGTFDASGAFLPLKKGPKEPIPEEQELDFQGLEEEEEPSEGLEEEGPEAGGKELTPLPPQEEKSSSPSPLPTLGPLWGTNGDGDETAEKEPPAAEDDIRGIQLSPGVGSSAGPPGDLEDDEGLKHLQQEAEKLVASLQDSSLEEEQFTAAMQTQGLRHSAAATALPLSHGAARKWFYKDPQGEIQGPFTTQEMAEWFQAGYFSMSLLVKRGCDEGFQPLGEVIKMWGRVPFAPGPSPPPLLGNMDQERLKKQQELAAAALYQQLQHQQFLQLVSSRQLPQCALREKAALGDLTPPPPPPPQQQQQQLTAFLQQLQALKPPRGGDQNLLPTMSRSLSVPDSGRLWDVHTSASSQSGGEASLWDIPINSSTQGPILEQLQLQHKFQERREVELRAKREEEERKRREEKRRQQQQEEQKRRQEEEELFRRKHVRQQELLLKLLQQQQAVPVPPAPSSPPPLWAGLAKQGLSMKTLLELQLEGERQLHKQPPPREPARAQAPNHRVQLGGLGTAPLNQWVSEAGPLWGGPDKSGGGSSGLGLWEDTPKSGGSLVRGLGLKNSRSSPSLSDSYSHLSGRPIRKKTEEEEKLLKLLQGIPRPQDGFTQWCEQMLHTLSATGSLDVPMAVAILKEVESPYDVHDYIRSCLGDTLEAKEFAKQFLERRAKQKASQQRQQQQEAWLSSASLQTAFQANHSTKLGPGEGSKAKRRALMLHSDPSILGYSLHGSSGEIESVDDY

[3] = target: T3, Ankyrin repeat domain 20 family member a5, pseudogene (human, UniProt A0PJZ0 1-165)
T3 construct: on protein array; also called ANKRD20A5P
T3 sequence (A0PJZ0 whole entry, the tested form may be a part): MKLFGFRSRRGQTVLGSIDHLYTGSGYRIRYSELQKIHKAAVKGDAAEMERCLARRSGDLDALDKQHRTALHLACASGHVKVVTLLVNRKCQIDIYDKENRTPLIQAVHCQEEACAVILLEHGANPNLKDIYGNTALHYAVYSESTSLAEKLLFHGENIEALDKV

[4] = target: T4, neural retina leucine zipper, transcript variant X4 (human, UniProt P54845 1-237)
T4 construct: on protein array; also called NRL
T4 sequence (P54845 whole entry, change not shown): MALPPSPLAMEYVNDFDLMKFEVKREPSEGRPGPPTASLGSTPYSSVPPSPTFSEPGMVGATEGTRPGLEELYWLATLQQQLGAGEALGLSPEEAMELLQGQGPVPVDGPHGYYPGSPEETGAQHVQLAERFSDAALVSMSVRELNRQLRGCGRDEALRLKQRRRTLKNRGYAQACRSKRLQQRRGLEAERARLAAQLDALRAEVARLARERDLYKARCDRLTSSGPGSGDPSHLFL

[5] = target: T5, BCL2 associated athanogene 2 (human, UniProt O95816 2-211)
T5 construct: on protein array; also called BAG2
T5 sequence (O95816 2-211 limits assumed): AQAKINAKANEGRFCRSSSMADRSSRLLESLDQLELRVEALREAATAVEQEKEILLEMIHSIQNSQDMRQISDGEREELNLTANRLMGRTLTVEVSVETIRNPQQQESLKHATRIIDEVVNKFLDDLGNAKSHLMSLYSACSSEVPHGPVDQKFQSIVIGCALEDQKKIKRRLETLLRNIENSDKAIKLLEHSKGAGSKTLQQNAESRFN

[6] = target: T6, heat shock protein family A (Hsp70) member 2 (human, UniProt P54652 1-639)
T6 construct: on protein array; also called HSPA2
T6 sequence (P54652 whole entry): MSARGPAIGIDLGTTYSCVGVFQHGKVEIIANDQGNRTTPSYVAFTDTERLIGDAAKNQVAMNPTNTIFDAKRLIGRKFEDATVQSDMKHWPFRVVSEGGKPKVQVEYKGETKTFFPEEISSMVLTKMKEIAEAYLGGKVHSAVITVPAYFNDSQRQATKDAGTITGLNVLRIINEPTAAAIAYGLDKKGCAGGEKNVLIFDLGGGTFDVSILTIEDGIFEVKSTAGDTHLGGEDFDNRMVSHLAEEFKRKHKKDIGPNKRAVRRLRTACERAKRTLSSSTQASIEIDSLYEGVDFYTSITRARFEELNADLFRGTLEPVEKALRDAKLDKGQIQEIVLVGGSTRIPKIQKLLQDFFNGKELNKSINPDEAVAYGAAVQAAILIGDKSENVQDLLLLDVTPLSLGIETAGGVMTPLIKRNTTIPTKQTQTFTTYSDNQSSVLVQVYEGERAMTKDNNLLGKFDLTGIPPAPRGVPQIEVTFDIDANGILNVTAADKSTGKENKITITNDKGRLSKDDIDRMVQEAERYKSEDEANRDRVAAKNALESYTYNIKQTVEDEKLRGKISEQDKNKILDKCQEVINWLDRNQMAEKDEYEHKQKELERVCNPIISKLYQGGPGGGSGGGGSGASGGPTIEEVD

[7] = target: T7, HSPA (Hsp70) binding protein 1, transcript variant 2 (human, UniProt Q9NZL4 1-359)
T7 construct: on protein array; also called HSPBP1
T7 sequence: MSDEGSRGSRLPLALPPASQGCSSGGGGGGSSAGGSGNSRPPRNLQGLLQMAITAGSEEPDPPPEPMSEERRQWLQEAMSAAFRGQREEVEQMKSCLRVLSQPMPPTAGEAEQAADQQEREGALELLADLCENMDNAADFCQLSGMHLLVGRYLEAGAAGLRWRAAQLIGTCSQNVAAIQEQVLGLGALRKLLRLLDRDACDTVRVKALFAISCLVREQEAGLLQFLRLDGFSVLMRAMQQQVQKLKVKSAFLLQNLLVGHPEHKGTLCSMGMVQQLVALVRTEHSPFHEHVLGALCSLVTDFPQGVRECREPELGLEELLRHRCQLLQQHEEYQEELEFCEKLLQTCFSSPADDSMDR

[8] = target: T8, dual specificity phosphatase 12 (human, UniProt Q9UNI6 1-340)
T8 construct: on protein array; also called DUSP12
T8 sequence (Q9UNI6 whole entry): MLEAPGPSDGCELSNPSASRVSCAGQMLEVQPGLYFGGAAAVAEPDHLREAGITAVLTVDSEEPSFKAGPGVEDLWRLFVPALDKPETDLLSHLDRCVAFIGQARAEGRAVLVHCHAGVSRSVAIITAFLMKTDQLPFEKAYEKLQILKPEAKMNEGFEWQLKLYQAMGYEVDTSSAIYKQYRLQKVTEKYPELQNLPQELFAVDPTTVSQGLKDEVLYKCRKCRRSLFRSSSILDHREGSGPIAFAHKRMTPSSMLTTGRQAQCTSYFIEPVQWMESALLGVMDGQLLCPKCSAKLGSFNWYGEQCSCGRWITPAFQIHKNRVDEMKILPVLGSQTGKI

[9] = target: T9, actinin alpha 1, transcript variant 2 (human, UniProt P12814 1-892)
T9 construct: on protein array; also called ACTN1
T9 sequence (P12814 whole entry, change not shown): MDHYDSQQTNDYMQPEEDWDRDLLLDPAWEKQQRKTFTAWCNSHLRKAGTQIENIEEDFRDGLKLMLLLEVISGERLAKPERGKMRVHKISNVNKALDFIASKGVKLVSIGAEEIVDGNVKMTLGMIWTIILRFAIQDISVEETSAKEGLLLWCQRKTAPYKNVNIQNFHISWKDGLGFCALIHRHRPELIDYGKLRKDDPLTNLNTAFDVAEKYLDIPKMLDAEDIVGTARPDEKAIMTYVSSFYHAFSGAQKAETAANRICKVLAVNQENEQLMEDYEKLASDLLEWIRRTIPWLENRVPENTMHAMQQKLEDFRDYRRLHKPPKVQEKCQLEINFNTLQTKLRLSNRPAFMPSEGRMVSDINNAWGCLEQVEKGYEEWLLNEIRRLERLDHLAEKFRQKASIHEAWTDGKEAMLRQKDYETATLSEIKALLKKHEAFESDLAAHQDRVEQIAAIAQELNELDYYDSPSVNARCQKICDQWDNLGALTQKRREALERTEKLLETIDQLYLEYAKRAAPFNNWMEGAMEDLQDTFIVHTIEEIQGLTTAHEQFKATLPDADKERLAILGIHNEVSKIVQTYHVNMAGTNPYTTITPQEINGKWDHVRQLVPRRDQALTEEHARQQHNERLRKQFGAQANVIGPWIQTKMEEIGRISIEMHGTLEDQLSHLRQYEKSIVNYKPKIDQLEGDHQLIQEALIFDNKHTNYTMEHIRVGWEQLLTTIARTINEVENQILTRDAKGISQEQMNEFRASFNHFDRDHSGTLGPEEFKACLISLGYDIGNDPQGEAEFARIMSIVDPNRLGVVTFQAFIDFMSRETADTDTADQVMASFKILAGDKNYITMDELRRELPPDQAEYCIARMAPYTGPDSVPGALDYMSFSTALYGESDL

[10] = target: T10, killer cell lectin like receptor Cl, transcript variant 3 (human, UniProt P26715 1-233)
T10 construct: on protein array; also called KLRC1
T10 sequence (P26715 other isoform, or with tags, fused parts or gaps mutant limits assumed): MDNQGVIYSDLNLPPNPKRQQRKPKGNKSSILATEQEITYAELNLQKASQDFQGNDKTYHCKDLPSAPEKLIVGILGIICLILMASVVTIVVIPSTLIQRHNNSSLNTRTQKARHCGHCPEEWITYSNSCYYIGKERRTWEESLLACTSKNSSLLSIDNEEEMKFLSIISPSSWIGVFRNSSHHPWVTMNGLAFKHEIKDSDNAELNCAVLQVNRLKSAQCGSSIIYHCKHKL

[11] = target: T11, oxidation resistance 1, transcript variant 1 (human, UniProt Q8N573 90-874, limits assumed)
T11 construct: on protein array; also called OXR1
T11 sequence: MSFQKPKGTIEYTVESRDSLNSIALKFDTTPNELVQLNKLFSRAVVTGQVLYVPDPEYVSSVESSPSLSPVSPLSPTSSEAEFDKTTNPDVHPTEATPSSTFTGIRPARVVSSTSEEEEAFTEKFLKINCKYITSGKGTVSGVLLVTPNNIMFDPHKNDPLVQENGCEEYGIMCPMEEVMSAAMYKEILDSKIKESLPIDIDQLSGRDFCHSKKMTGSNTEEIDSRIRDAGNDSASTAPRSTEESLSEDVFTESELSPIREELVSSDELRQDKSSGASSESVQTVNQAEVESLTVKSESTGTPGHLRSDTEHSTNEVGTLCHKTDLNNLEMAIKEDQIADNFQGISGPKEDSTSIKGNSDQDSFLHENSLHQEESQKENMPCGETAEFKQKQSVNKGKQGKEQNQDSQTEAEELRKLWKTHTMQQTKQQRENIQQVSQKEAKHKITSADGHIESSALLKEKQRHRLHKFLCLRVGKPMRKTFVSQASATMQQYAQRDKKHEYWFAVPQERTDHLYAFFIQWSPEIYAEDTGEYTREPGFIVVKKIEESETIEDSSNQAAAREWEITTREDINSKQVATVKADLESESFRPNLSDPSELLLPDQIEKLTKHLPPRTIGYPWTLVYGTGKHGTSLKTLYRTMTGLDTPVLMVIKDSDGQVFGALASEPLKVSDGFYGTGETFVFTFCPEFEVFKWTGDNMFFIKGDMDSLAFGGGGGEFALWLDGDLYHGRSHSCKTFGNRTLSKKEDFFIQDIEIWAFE

[12] = target: T12, coiled-coil domain containing 74B, transcript variant 2 (human, UniProt Q96LY2 1-380)
T12 construct: on protein array; also called CCDC74B
T12 sequence (Q96LY2 other isoform, or with tags, fused parts or gaps mutant limits assumed): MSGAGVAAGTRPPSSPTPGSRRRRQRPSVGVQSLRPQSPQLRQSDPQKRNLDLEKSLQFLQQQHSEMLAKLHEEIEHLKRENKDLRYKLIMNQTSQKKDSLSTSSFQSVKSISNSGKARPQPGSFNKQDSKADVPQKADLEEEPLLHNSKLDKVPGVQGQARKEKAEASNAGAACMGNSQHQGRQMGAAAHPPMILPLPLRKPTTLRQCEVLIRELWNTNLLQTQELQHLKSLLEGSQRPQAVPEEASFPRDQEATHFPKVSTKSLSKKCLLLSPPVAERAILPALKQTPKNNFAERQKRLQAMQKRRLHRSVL

[13] = target: T13, Long intergenic non-protein coding rna 242 (human, UniProt Q5T6M2 1-205)
T13 construct: on protein array; also called LINC00242
T13 chain: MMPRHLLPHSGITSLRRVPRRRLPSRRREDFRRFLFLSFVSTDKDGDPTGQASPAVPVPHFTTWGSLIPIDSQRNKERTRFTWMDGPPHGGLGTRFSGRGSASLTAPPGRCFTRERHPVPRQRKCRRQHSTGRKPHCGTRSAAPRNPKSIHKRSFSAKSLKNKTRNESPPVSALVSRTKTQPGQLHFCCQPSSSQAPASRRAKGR

[14] = target: T14, C-X-C motif chemokine receptor 4, transcript variant 2 (human, UniProt P61073 1-352)
T14 construct: on protein array; also called CXCR4
T14 sequence (P61073 whole entry, change not shown): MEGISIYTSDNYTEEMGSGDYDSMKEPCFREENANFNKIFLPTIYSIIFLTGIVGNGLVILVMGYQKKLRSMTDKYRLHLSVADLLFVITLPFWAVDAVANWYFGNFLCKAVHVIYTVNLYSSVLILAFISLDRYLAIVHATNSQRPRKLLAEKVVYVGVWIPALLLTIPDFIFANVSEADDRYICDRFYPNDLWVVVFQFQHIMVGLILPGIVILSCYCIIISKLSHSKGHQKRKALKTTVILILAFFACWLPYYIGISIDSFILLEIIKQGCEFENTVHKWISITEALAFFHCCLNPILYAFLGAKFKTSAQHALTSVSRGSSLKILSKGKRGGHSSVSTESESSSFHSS

binding result [1]: binds | binding result [2]: binds | binding result [3]: binds
B1: TPRO1002 (antibody, V domains shown)
VH: EVQLVESGGGVIKPGGSLKLSCEGSGFTLDDYVMHWVRQAPGKGLEWISSISGDGTRTYYADSVKGRFTISRNNGKNSLYLQMDSLRREDTALYYCAKDARLAYYGMDVWGQGTTVTVSS
VL: QSALTQPASVSGSPGQSITISCTGTSSDIGGYDLVSWYQHHPGKAPKLVISEGSKRPSGVSNRFFGSKSGNTASLTISGLQAEDEADYYCCSFTGTSTFVFGTGTKVTVL
notes: VH/VL tied via antigen in summary, not by name in this stretch

binding result [4]: binds
B2: TSAR1001 (antibody, V domains shown)
VH: EVQLVESGGGMVQPGESLRLSCAASGFDFTSYWMAWVRQAPGKGLEWVANMNADGSEKHYVDSVKGRFSISRDNAKKLLFLQMNSLTVDDTGVYYCARDEGRREGAWGQGTQVIVSA
VL: EIVLTQSPATLSFSPGDRATLSCRASQNINRFLAWYQQKPGQTPRLLIYDASTRATGIPARFSGSGSGTDFSLIISSLEPEDFAIYYCQQRNNWPITFGPGTKVDVK
notes: as for B1

binding result [5]: binds | binding result [6]: binds | binding result [7]: binds
B3: TSAR1005 (antibody, V domains shown)
VH: QVQLVESGGGVVQPGRSLRLSCVASGFTFSNYAMHWVRQAPGKGLEWVAVIWYDGSNEYYRDSVEGRFTISRDSSKNTLYLLVNSLRAEDTAVYYCARGNGPKSGKYSDFDYWGQGTLVTVSS
VL: DVVMTQSPLSLPVTLGQAASISCRSSQSLVYSDGNTYLNWFQQRPGQSPRRLIYKVSNRESGVPDRFSGSGSGTDFTLQISRVEAEDVGIYYCMQGAHWPPITFGQGTRLEIKR
notes: as for B1

binding result [8]: binds | binding result [9]: binds
B4: TBRE1007 (antibody, V domains shown)
VH: QVQLQESGPGLVRPSETLSLTCDVSGYLISSGYYWGWVRQPPGKGLEWIGSVYHSGNAYYNPSLKGRVTMSVDTSKNQFSLKLTSVAAEDTAVYYCAREHRSGYQRYWGQGTLVTVSS
VL: IQMTQSPSSLSASVGDRVTITCRASQAIANSLAWYQQRPGKAPKLLIYAASSLESGVPSRFSGSGSGTDYTLTISSLQPEDFATYYCQQYYINPRTFGQGTKVEIKR
notes: VH/VL only

B5: TREC1003 (antibody, V domains shown)
VH: QVQLVQSGSEVKKPGASVRLACKTSGYTFSNYGVSWVRQGPGRGLEWLGWISGYNGRTHSADKFRDRVTLTTDTSTTTVYVDLKNLTSDDTAVYYCARVGTSHWYSDSWGQGTLVTVSS
VL: QSVLTQPPSVSGAPGQRVTISCAGSYSNIGAGYDVHWYRQLPGTAPTLLIYSNNNRPSGVSDRFSGSKSGTSASLAITGLQAEDEADYYCQSFDSSLSRSVFGTGTKVTVL
notes: as for B1
binding result [10]: binds

binding result [11]: binds
B6: TPRO1001 (antibody, V domains shown)
VH: EVQLVQSGAEVKKPGESLRISCKGSGYSFTSFWISWVRQMPGKGLEWMGRIDPSDSYTNYSPSFQGHVTISADKSISTAFLQWSSLKASDTAMYYCARHQQKYSPISPLDYWGQGTLVTVSS
VL: QSALTQPASVSGSPGQSITISCTGTSSDVGGYNYVSWYQQHPGKAPKLMIYDVSNRPSGVSNRFSGSKSGNTASLTISGLQAEDEADYYCSSYTSSSSLVFGGGTKVTVLG
notes: as for B1

binding result [12]: binds
B7: TSAR1003 (antibody, V domains shown)
VH: QLQLQESGPGLVKPSETLSLTCTVSGVSIGTSSYYWGWIRQPPAKGLEWIGSIYYSGSTYYNPSLKNRVTISVDTSKNHFSLKLSSVTAADTAVYYCARHRTGQYYYNSWGQGTLVTVSS
VL: SSELTQDPAVSVALGQTVRITCQGDSLRTDYATWYQQKPGQAPILVFYGEDNRPSGIPDRFSGSSSGNTASLTITGAQAEDEADYYCNSRDSSGHHWVFGGGTKLTVL
notes: as for B1

binding result [13]: binds | binding result [14]: binds
B8: TSAR1006 (antibody, V domains shown)
VH: QVQLVQSGTEVKKPGASVKVSCKASGYRFTSNGISWVRQAPGQGLQWMGWISTDSGNTNYAQSFQGRVTLTRDTSTNTAYLELRRLRSEDTAVYYCARDKSWYFDYWGQGTLVSVSS
VL: SYELTQPPSVSVSPGQTARITCSGDALPKKYVFWYQQRSGQAPVLVIYEDSKRPSGIPDRFSGSSSGTLATLTISGAQVEDEADYYCYSTDTIGNWVFGGGTRLTVL
notes: as for B1
